Test results from the supplement of paper PMC10724198.
± gives the standard deviation of the averaged measurements.

These sequences were tested on Saccharomyces cerevisiae (assay: protein stability index of tFT-peptide fusion (C-terminal peptide) (PSI (0-1 scale)); higher = more stable (slower turnover)). Details: genetic background: wild type; temperature: 30 C.
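Note: PSI is a weighted mean of sequencing reads over stability bins, variants kept only with over 10 reads, mCherry proximal and sfGFP distal, peptide attached via GGGS linker.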

Point of comparison: VFWGGGAVGSVR, protein stability index 0.69 ± 0.071. Against it:
- FSASSSLSPFPL — within error, 0.707 ± 0.052
- FAISPCVSLAFF — within error, 0.642 ± 0.05
- TRCGGRWGEGWR — within error, 0.72 ± 0.028
- PTRFLPVPSLFS — within error, 0.679 ± 0.048
- WVESGGGCVGRI — within error, 0.706 ± 0.039
- PPGAPPYPSPPP — within error, 0.569 ± 0.092
- PPGCPCPASTGS — within error, 0.6916 ± 0.004
- LFFRLRSLLSRS — within error, 0.623 ± 0.0063
- GGTWVLGWGLGV — within error, 0.714 ± 0.4
- AGEGGRKGGGSR — within error, 0.676 ± 0.014
- VKYPALMITGFW — within error, 0.669 ± 0.015
- PPPSPPPSLSLP — within error, 0.702 ± 0.025
- SPRPPPLIIAST — within error, 0.664 ± 0.031
- FKRPQFFSAFFP — within error, 0.612 ± 0.011
- SCIAVRDPWGLV — within error, 0.683 ± 0.018
- ARVRAQIRDGRT — within error, 0.6403 ± 0.0021
- GLGGPLSLVYLF — within error, 0.629 ± 0.037
- PRPRTQPHPGPG — within error, 0.711 ± 0.0096
- EVYTWTGNMWNI — within error, 0.673 ± 0.095
- IGWCRLRDRLVS — lower, 0.556 ± 0.048
- PFPLGPSLQTVI — within error, 0.681 ± 0.028
- YCVCACCASLLA — lower, 0.538 ± 0.025
- VIGRRRLQDWII — within error, 0.736 ± 0.081
- GTVEDVLIFYEP — within error, 0.691 ± 0.1
- RWRFSARSRLSR — within error, 0.642 ± 0.013
- GRKKKRREEKDT — within error, 0.609 ± 0.027
- PSPPPLSSPPSP — within error, 0.6425 ± 0.003
- LRYARAPFPAPP — within error, 0.699 ± 0.024
- PQFRHFWALSTT — within error, 0.707 ± 0.015
- LRKGGGVGVWRG — within error, 0.687 ± 0.012
- KENKKNDRRDII — within error, 0.728 ± 0.023
- YESISGLGHLSG — within error, 0.6962 ± 0.005
- LLWPVFQCLPLL — within error, 0.729 ± 0.045
- YSGRCGVKLFNG — within error, 0.705 ± 0.073
- GGLGVYQWVDSV — within error, 0.663 ± 0.02
- GGVLAGEWGAGL — within error, 0.624 ± 0.051
- GGTGRGGEMGGR — within error, 0.7428 ± 0.0069
- VAWYALPWCVLI — within error, 0.6211 ± 0.0041
- GVGRGGSSRWLG — within error, 0.646 ± 0.06
- GVLQYPPCTYPH — within error, 0.675 ± 0.0078
- IQLRPFLSSPCR — within error, 0.609 ± 0.035
- HIKSENKEKGKI — within error, 0.624 ± 0.022
- PPCPGPLPPPPP — within error, 0.6663 ± 0.0025
- DVLESPVLYPTN — within error, 0.70948 ± 7.6e-05
- ISVEELKSIKKK — within error, 0.6296 ± 0.0019
- LGEDRVKYQKLW — within error, 0.7234 ± 0.007
- YVLSVKEGTNLP — within error, 0.709 ± 0.023
- NMLWSLGRGGSC — within error, 0.6648 ± 0.0029
- FPLPPLPPVPPP — within error, 0.632 ± 0.059
- REWLGCYVFGVR — within error, 0.677 ± 0.022
- LGGASNGCSTLK — within error, 0.718 ± 0.091
- RCPDSARRWRVP — within error, 0.7111 ± 0.0045
- RPPPSAIPPPSP — within error, 0.6274 ± 0.0014
- PLPSHPPRPLPP — within error, 0.67 ± 0.05
- VCGSRAVRRTEL — within error, 0.712 ± 0.07
- VVGRGGGFVGPG — within error, 0.616 ± 0.026
- GSRLIGGFIVVG — within error, 0.6365 ± 0.0021
- RTSLRYLKRVER — within error, 0.669 ± 0.076
- GGIRGITSRQPP — lower, 0.576 ± 0.019
- LGSGGLMEPWCG — within error, 0.644 ± 0.11
- GGRQTAVSGLLL — within error, 0.685 ± 0.017
- KQTICNTGPQWV — within error, 0.6267 ± 0.0022
- CPLPLPPLHESF — within error, 0.674 ± 0.031
- DGGRGQGMLGGS — within error, 0.662 ± 0.063
- KKIQKKKKLIPQ — within error, 0.7247 ± 0.0058
- QITYKTLSGINM — within error, 0.703 ± 0.065
- APSPSPPPPLPN — within error, 0.685 ± 0.058
- WVPGAAGFTGSL — within error, 0.74 ± 0.049
- GRSCSSWSSWGF — within error, 0.716 ± 0.01
- PPLRLASSPPPV — within error, 0.736 ± 0.062
- GHAYKYVDSFRR — within error, 0.654 ± 0.044
- FCRTSGSVGDHV — within error, 0.721 ± 0.017
